Measurements published in patent US20060147922A1, “Novel diagnostic and therapeutic methods and reagents therefor” (priority 2002, published 2006).

Experiments:
[1] = target: GST fusion of mouse importin β1 (PTAC97) (mouse) (UniProt P70168); assay: GST-importin β pull-down of IVT 35S-EDD, autoradiography
[2] = target: GSTchk2-N (GST fused to chk2 aa 1-225) (human) (UniProt O96017); assay: pre-incubation of GSTchk2-N with the peptide, then pull-down of IVT 35S-EDD (competitor of EDD)
Chain of GSTchk2-N (GST fused to chk2 aa 1-225) (human) (O96017 1-225): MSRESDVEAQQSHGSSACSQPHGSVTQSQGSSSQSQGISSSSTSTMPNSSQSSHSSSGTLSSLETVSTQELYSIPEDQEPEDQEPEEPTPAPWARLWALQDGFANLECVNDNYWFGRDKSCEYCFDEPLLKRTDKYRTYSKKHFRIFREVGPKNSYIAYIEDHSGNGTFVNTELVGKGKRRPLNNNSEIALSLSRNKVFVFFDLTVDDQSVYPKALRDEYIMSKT

Chain of GST fusion of mouse importin β1 (PTAC97) (mouse) (P70168 whole entry, the tested form may be a part): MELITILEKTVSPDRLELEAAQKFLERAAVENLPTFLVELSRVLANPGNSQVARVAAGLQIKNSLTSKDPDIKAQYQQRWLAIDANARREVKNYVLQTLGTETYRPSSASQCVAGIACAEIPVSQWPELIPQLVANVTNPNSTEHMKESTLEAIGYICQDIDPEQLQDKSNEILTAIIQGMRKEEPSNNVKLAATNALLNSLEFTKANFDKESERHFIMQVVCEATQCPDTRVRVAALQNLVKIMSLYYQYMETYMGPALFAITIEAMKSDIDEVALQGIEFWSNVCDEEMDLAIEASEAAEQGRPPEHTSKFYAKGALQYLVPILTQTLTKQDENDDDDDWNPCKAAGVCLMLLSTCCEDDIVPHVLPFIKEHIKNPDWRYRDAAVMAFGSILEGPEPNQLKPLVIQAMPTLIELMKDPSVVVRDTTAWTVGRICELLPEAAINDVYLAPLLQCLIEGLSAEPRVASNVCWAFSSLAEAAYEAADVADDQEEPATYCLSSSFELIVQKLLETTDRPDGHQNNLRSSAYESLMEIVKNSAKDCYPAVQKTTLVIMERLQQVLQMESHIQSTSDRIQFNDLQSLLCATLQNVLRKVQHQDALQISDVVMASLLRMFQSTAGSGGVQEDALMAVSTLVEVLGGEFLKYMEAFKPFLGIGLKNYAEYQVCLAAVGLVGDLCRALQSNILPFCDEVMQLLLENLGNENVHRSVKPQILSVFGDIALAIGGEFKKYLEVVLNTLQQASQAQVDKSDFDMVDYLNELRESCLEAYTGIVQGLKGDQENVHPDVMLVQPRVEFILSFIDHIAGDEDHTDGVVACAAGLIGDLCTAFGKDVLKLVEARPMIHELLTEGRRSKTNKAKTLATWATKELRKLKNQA

| Substance | percent of the available EDD protein pulled down [1] [%] | peptide concentration that abolished binding of EDD to chk2-N [2] [µM] |
| --- | --- | --- |
| EDD protein, full length (aa 1-2799) (from UniProt O95071 1-2799) | 5 |  |
| FHA-binding phosphopeptide RWFDT(P)YLIRR |  | > 50 |
